Measurements reported in patent US20190271021A1.
Positions count from the first letter of the chain named. Names may count otherwise.

B1: pre-pro(IgA)-BDNF(-RGR)-His6 (ligand)
chain: MTILFLTMVISYFGCMKAAPMKEANIRGQGGLAYPGVRTHGTLESVNGPKAGSRGLTSLADTFEHVIEELLDEDQKVRPNEENNKDADLYTSRVMLSSQVPLEPPLLFLLEEYKNYLDAANMSMGSVVAPPAPHSDPARRGELSVCDSISEWVTAADKKTAVDMSGGTVTVLEKVPVSKGQLKQYFYETKCNPMGYTKEGCRGIDKRHWNSQCRTTQSYVRALTMDSKKRIGWRFIRIDTSCVCTLTIKGSGHHHHHH
B2: pre-pro-BDNF(-RGR; G62N, Y63G, Q79T)-T7-His6 (ligand)
chain: APMKEANIRGQGGLAYPGVRTHGTLESVNGPKAGSRGLTSLADTFEHVIEELLDEDQKVRPNEENNKDADLYTSRVMLSSQVPLEPPLLFLLEEYKNYLDAANMSMRVRRHSDPARRGELSVCDSISEWVTAADKKTAVDMSGGTVTVLEKVPVSKGQLKQYFYETKCNPMNGTKEGCRGIDKRHWNSTCRTTQSYVRALTMDSKKRIGWRFIRIDTSCVCTLTIKGSGMASMTGGQQMGHHHHHH
B3: pre-pro-BDNF(-RGR; K25N, Q79T)-T7-His6 (ligand)
chain: B2 chain with K135N, N172G, G173Y
B4: pre-pro-BDNF(-RGR; Q79T, R81N)-T7-His6 (ligand)
chain: B2 chain with N172G, G173Y, R191N
B5: pre-pro-BDNF(-RGR; T35N, G62N, Y63G, Q79T)-T7-His6 (ligand)
chain: B2 chain with T145N
B6: pre-pro-BDNF(-RGR; R81N)-T7-His6 (ligand)
chain: B2 chain with N172G, G173Y, T189Q, R191N
modifications: N-glycan at the introduced site (degree of glycosylation ++)
B7: pre-pro-BDNF(-RGR; G62N, Y63G, R81N)-T7-His6 (ligand)
chain: B2 chain with T189Q, R191N
B8: pre-pro-BDNF(-RGR; T35N; G62N; Y63G)-T7-His6 (ligand)
chain: B2 chain with T145N, T189Q
B9: pre-pro-BDNF(-RGR; Q79S)-T7-His6 (ligand)
chain: B2 chain with N172G, G173Y, T189S
B10: pre-pro-BDNF(-RGR; K25N; G62N; Y63G)-T7-His6 (ligand)
chain: B2 chain with K135N, T189Q
B11: pre-pro-BDNF(-RGR; T35N, Q79T)-T7-His6 (ligand)
chain: B2 chain with T145N, N172G, G173Y
B12: pre-pro-BDNF(-RGR)-opsin(L)-His6 (ligand)
chain: APMKEANIRGQGGLAYPGVRTHGTLESVNGPKAGSRGLTSLADTFEHVIEELLDEDQKVRPNEENNKDADLYTSRVMLSSQVPLEPPLLFLLEEYKNYLDAANMSMRVRRHSDPARRGELSVCDSISEWVTAADKKTAVDMSGGTVTVLEKVPVSKGQLKQYFYETKCNPMGYTKEGCRGIDKRHWNSQCRTTQSYVRALTMDSKKRIGWRFIRIDTSCVCTLTIKGSGNGTEGPNFYVPFSNATGVVRHHHHHH
B13: pre-pro(His6-R54A)-BDNF(-RGR) (ligand)
chain: MTILFLTMVISYFGCMKAAPMKEANIHHHHHHAPMKEANIRGQGGLAYPGVRTHGTLESVNGPKAGSAGLTSLADTFEHVIEELLDEDQKVRPNEENNKDADLYTSRVMLSSQVPLEPPLLFLLEEYKNYLDAANMSMRVRRHSDPARRGELSVCDSISEWVTAADKKTAVDMSGGTVTVLEKVPVSKGQLKQYFYETKCNPMGYTKEGCRGIDKRHWNSQCRTTQSYVRALTMDSKKRIGWRFIRIDTSCVCTLTIK
B14: pre-pro(R54A)-BDNF(-RGR)-His6 (ligand)
chain: HSDPARRGELSVCDSISEWVTAADKKTAVDMSGGTVTVLEKVPVSKGQLKQYFYETKCNPMGYTKEGCRGIDKRHWNSQCRTTQSYVRALTMDSKKRIGWRFIRIDTSCVCTLTIKGSGHHHHHH
B15: pre-pro-BDNF(-RGR)-opsin(S)-His6 (ligand)
chain: APMKEANIRGQGGLAYPGVRTHGTLESVNGPKAGSRGLTSLADTFEHVIEELLDEDQKVRPNEENNKDADLYTSRVMLSSQVPLEPPLLFLLEEYKNYLDAANMSMRVRRHSDPARRGELSVCDSISEWVTAADKKTAVDMSGGTVTVLEKVPVSKGQLKQYFYETKCNPMGYTKEGCRGIDKRHWNSQCRTTQSYVRALTMDSKKRIGWRFIRIDTSCVCTLTIKGSGNGTEGPNFYVPFSNATGSGHHHHHH
B16: pre-pro(His6-R54A-IgA)-BDNF(-RGR) (ligand)
chain: MTILFLTMVISYFGCMKAAPMKEANIHHHHHHAPMKEANIRGQGGLAYPGVRTHGTLESVNGPKAGSAGLTSLADTFEHVIEELLDEDQKVRPNEENNKDADLYTSRVMLSSQVPLEPPLLFLLEEYKNYLDAANMSMGSVVAPPAPHSDPARRGELSVCDSISEWVTAADKKTAVDMSGGTVTVLEKVPVSKGQLKQYFYETKCNPMGYTKEGCRGIDKRHWNSQCRTTQSYVRALTMDSKKRIGWRFIRIDTSCVCTLTIK
B17: pre-pro-BDNF, RGR deleted, GSG, C-terminal His6, R54A, IgA protease cleavage site (row 2 of Table 9) (ligand)
chain: APMKEANIRGQGGLAYPGVRTHGTLESVNGPKAGSAGLTSLADTFEHVIEELLDEDQKVRPNEENNKDADLYTSRVMLSSQVPLEPPLLFLLEEYKNYLDAANMSMGSVVAPPAPHSDPARRGELSVCDSISEWVTAADKKTAVDMSGGTVTVLEKVPVSKGQLKQYFYETKCNPMGYTKEGCRGIDKRHWNSQCRTTQSYVRALTMDSKKRIGWRFIRIDTSCVCTLTIKGSGHHHHHH
B18: pre-pro-BDNF(-RGR)-T7-His6 (ligand)
chain: HSDPARRGELSVCDSISEWVTAADKKTAVDMSGGTVTVLEKVPVSKGQLKQYFYETKCNPMGYTKEGCRGIDKRHWNSQCRTTQSYVRALTMDSKKRIGWRFIRIDTSCVCTLTIKGSGMASMTGGQQMGHHHHHH
B19: pre-pro-BDNF(-RGR)-opsin(S)-T7-His6 (ligand)
chain: APMKEANIRGQGGLAYPGVRTHGTLESVNGPKAGSRGLTSLADTFEHVIEELLDEDQKVRPNEENNKDADLYTSRVMLSSQVPLEPPLLFLLEEYKNYLDAANMSMRVRRHSDPARRGELSVCDSISEWVTAADKKTAVDMSGGTVTVLEKVPVSKGQLKQYFYETKCNPMGYTKEGCRGIDKRHWNSQCRTTQSYVRALTMDSKKRIGWRFIRIDTSCVCTLTIKGSGNGTEGPNFYVPFSNATGSGMASMTGGQQMGHHHHHH
B20: pre-pro-BDNF(-RGD)-myc-His6 (ligand)
chain: APMKEANIRGQGGLAYPGVRTHGTLESVNGPKAGSRGLTSLADTFEHVIEELLDEDQKVRPNEENNKDADLYTSRVMLSSQVPLEPPLLFLLEEYKNYLDAANMSMRVRRHSDPARRGELSVCDSISEWVTAADKKTAVDMSGGTVTVLEKVPVSKGQLKQYFYETKCNPMGYTKEGCRGIDKRHWNSQCRTTQSYVRALTMDSKKRIGWRFIRIDTSCVCTLTIKGSGEQKLISEEDLGSGHHHHHH
B21: pre-pro-BDNF-T7-His6 (ligand)
chain: APMKEANIRGQGGLAYPGVRTHGTLESVNGPKAGSRGLTSLADTFEHVIEELLDEDQKVRPNEENNKDADLYTSRVMLSSQVPLEPPLLFLLEEYKNYLDAANMSMRVRRHSDPARRGELSVCDSISEWVTAADKKTAVDMSGGTVTVLEKVPVSKGQLKQYFYETKCNPMGYTKEGCRGIDKRHWNSQCRTTQSYVRALTMDSKKRIGWRFIRIDTSCVCTLTIKRGRGSGMASMTGGQQMGHHHHHH

The binders below were run against human TrkB on CHO cells (CHO-K1-hTrkB/pSRE-Luc) (human) (UniProt Q16620) (assay: cell-based or functional assay).
human TrkB on CHO cells (CHO-K1-hTrkB/pSRE-Luc) (human), sequence (Q16620 32-822): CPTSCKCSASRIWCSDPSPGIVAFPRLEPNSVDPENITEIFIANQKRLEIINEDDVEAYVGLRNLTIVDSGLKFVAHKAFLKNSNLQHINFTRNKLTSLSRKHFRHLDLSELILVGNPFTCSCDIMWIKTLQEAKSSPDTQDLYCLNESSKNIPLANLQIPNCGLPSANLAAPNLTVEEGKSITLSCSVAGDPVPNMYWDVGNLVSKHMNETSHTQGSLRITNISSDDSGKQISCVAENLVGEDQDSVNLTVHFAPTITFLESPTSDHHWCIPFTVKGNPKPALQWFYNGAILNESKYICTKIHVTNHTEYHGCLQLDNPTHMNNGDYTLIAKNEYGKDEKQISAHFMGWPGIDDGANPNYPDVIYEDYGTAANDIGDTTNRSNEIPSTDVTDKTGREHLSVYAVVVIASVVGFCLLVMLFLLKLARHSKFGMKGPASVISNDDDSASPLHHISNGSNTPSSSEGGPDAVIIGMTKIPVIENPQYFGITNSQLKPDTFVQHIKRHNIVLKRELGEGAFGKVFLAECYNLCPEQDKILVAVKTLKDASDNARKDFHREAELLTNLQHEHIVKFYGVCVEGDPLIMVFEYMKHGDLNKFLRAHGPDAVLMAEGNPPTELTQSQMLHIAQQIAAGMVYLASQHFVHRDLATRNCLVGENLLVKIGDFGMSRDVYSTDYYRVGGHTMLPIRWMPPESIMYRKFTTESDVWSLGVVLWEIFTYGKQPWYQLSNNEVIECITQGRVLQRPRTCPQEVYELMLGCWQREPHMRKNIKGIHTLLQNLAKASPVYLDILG
B1 showed a BDNF activity in TrkBluciferase assay, EC50 [% or nM] of 282% and a BDNF activity in TrkBluciferase assay, EC50 [nM] of 9.6 nM.
In the case of B2, the BDNF activity in TrkBluciferase assay, EC50 [% or nM] is reported as 0.13 nM.
With B3 the BDNF activity in TrkBluciferase assay, EC50 [% or nM] was 0.21 nM.
Work on B4 yielded a BDNF activity in TrkBluciferase assay, EC50 [% or nM] of 0.05 nM.
B5 was tested, and the BDNF activity in TrkBluciferase assay, EC50 [% or nM] was 0.069 nM.
Work on B6 yielded a BDNF activity in TrkBluciferase assay, EC50 [nM] of 0.8 nM.
In the case of B7, the BDNF activity in TrkBluciferase assay, EC50 [% or nM] is reported as 203%.
In the case of B8, the BDNF activity in TrkBluciferase assay, EC50 [% or nM] is reported as 0.039 nM.
With B9 the BDNF activity in TrkBluciferase assay, EC50 [nM] was 6.9 nM.
In the case of B10, the BDNF activity in TrkBluciferase assay, EC50 [% or nM] is reported as 276%.
In the case of B11, the BDNF activity in TrkBluciferase assay, EC50 [% or nM] is reported as 0.064 nM.
In the case of B12, the BDNF activity in TrkBluciferase assay, EC50 [% or nM] is reported as 555%, the BDNF activity in TrkBluciferase assay, EC50 [nM] is reported as 0.3 nM and the relative BDNF activity in TrkB luciferase assay, EC50 [%] is reported as 10%.
B13 was tested, and the BDNF activity in TrkBluciferase assay, EC50 [nM] was 1.2 nM.
In the case of B14, the BDNF activity in TrkBluciferase assay, EC50 [nM] is reported as 1.2 nM.
With B15 the BDNF activity in TrkBluciferase assay, EC50 [nM] was 0.3 nM.
Binder B16 has a BDNF activity in TrkBluciferase assay, EC50 [nM] of 9.6 nM.
In the case of B17, the BDNF activity in TrkBluciferase assay, EC50 [nM] is reported as 9.6 nM.
B18 was tested, and the BDNF activity in TrkBluciferase assay, EC50 [% or nM] was 100%, the BDNF activity in TrkBluciferase assay, EC50 [nM] was 3.4 nM and the relative BDNF activity in TrkB luciferase assay, EC50 [%] was 100%.
B19 was tested, and the BDNF activity in TrkBluciferase assay, EC50 [nM] was 0.3 nM.

Target: human TrkB on CHO cells (CHO-K1-hTrkB/pSRE-Luc) (human) (UniProt Q16620)
Experiment: cell-based or functional assay
Remark: another data set of the same source
Work on B20 yielded a BDNF activity in TrkBluciferase assay, EC50 [nM] of 0.36 nM.
Binder B18 has a BDNF activity in TrkBluciferase assay, EC50 [nM] of 3 nM.
For B21, the BDNF activity in TrkBluciferase assay, EC50 [nM] was 3 nM.
